Assay [1] has as its target SARS-CoV-2 Spike glycoprotein (WH-1), trimeric, HEK293-produced (S1+S2) (SARS-CoV-2) (UniProt P0DTC2). The assay can be described thus: ITC.
Assay [2] concerns the target baculovirus-produced trimeric Spike (SARS-CoV-2) (UniProt P0DTC2). Description: ITC.
In assay [3] the target is SARS-CoV-2 Spike glycoprotein (Omicron), trimeric, HEK293-produced (SARS-CoV-2) (UniProt P0DTC2). The assay can be described thus: ITC.
Assay [4] deals with SARS-CoV-2 Spike glycoprotein (WH-1), trimeric, HEK293-produced (S1+S2) (SARS-CoV-2) (UniProt P0DTC2). The assay can be described thus: ELISA.

cyanovirin-N, sequence (P81180 whole entry): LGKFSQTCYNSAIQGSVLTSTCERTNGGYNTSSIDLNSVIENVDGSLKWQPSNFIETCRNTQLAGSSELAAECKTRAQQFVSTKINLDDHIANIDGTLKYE

With “cyanovirin-N (from UniProt P81180 1-101) (natural protein)”, the Kd was 28.1 nM in assay [1], 13.4 nM in assay [2] and 15.4 nM in assay [3]. The stoichiometry N (CV-N per Spike monomer) was 2 in assay [1], 2.4 in assay [2] and 2 in assay [3]. Also, in assay [4], the EC50 was 2.9 nM.

The values above are taken from publication PMC10013841.
